Measurements published in the DeepSol protein solubility set.

experiment: soluble on expression in E. coli; label from the status in PepcDB or PDB records

Sequence	soluble on expression in E. coli
MAHHHHHHMDAAIAQLRGCLEELLTYYPHVLRNVFEVEPSPLAAPKLSQQRPRDSSALADVIEDFLTELTRVLSIGLCDDDLGLWSVLELLECVPARMQAVAEATATAPETAALSKHGAQEPLQQLQRFRFASQLVYLVRSAFPATAPAVRARIFLRLTLNQGCLVAALELLREWCRSELLVFYAASDRGRRNGAAGSASSVALLVQSDTDSDMWNSFVAAIAPVAGPPVAEIAAGAPKVAAQPFHLQLLVPGLDDNSAASHAYYTQVENYACGRQPTRPSALACYRAALRQHSGSARKHDRSFRAASAGEGAASSPKLSPHPAEQLVLRVESLSVDHRTASGKEVAPVSRGNVSYDSSSTLSSRPMTLEPLSFVHRERLRGAKKRRRRHPSLSTAGAVAREEDAAGSPTPEGKTDNTTSDNTGSVAEAALHTSTVVTEAKECQGAPEAGEKAAPPYRDDYASRDDDPQVAPTVGETGAAQAASRALDTVSTDSPASAPHCLSPALRAAESPNRTLDSSSAPALSPELRNLQHRLWLCWLAVVTHAESEERIRITVRDVDANIS	not soluble
MAHHHHHHMDDYHDDDVHSNYGYEDDEYDDAADDWEAEAAEEEQRAVAEEAARQARLEKKLATRAPVKKEEEEEAVPEDVERAMADMRQVANDIASGSALLSGGDSEELIGNHKLASDADVERVGTMIADRLTSFSDSGHYDKLIVEVFQRLTNHLTSTHLLNEEADRVHRLREELKRAAKAKLKPVEKAPVTQSGLDLDNFEDRGGAAVADNEDETGW	soluble
MAHHHHHHMDTTTLKEADMNQMIIQLMEREKKKKKKKNIYEQKKMEPQNYSHMKKFKISPKEEKSLNKEEIKSHLINFFQEQEKIYKDEELNTKNYIIDETKKKEKEVYLNGYYIYCQDFKNEYNNYFNSFIKESEDIKKDLKDLQIQYMDDKILLGNKRKMELDNMLHFYKEKLLDIKNHWDTKNFCDDNLKNIVYDILNVIN	not soluble
MAHHHHHHMEANGTLVECKRGESDAVVFRFLIIDAPSPSSVPAYMKLLQRHNVMHIVRACGPTYNAEVFEKQGIVVHGWSFDDGASPTQTVIDNWLNLLEQEKNKSPPETIAVHCVSGLGRAPILVALALVEYGGMPPLDAVGYVRGRRKGAINQVQLNWLMRYKPRHQESNEGSLICARCTLM	soluble
MAHHHHHHMEDGEALDLQDALKPEVKERPVRLIKIERHDGTKAFLNSVIEMAQVVLDNMPPDACYKDIAIKLKTKLDEVEKGTWHVIVGSHFGANVTNDSETLVNFKIDEMHILLFRSGPPERPMSLNDEGS	soluble
MAHHHHHHMEEESHALKDPWFVSYIPQLTTEIVKNNYEGDWNLAKEALQQPLDYVRTVEEFWSTLNSLPKLHQLESSSTFVFARNNVDASYEAFPNGTRIIVDIRKAAMAEKATAVILSSVIGESVSQEVCGGKPICDVLRLSSRPNKESPELVRLEVWLSDQTYGKAVLAYVRKALNDVGMSQPHVIFGESLFEKEKKKKGK	soluble
MAHHHHHHMEHLSVTKNSQMNNLAAYNNQEANYSLAAPNQEEYSENDLFYTFYDKFNEIFLFIQNLKENKNDLEDEVDDNLIKTLHNLCLEFLNYIKQINDFGHMNLSKNDQDLIIESYEKFVRQCKQYNDKPQVKQLENEISNLLDLLFNNTSGRHNSWRSGKKRKKREKEKKKLISPP	soluble
MAHHHHHHMELCLYNSKNGYLEALLRGFRSSFLTPEEYKKLTEVDTLEDLKSVLEDTDYGSFMMDEPSPIAVTTIAQKCKEKMAHEFNYIRAQAEEPLRTFLDYIAKEKMIDNVIILIHGTLNKKPAEELLSRVDPLGYFPQMKAITTMDVQNSHDDVLKVLLIETPIGTYFDKYISANASNEKNNVTTILNEMDIEILRNTLKKAWLEDFYDFIRELGGKTEEVMGHILKSVADFRVLSVTLNTINSSLSLELQKDRNDMFPCFGYLYPEGTDRIRKCWNNETVQAALENYPTYYNLYEECKQFYMKNENMQDSKIVDHKVKSLEDLLYVKLVKLCETAFDQHCHFGIFYAWVKLKEQEIRNIVWISDMILMNRKDCIDSIIPIFEPQI	not soluble
MAHHHHHHMELYQDNKINNVGNIEINQCDGVIKKENDLHVSVIKPITKKIIHCDNMENKMKINAFYKPVELVEEIKNYVHKGDTHLVKLYEDFKNKKDKKVKMKNEYMTKLKNLHILNMINNKKKENECGVVNKNNIVHFNLFNENEDVTPKIETVYIPKLEKNIEVVSHLKENVNVDYTYMVPKPVVIPIEVPILKFRDHFKIIPIRKKIIPVIKYTDNIIYVDCCVEKPYIVYENVIIPVPCDIPIEQKKYIDKVPPI	not soluble
